Measurements from paper PMC8558179, “The C-terminal peptide of CCL21 drastically augments CCL21 activity through the dendritic cell lymph node homing receptor CCR7 by interaction with the receptor N-terminus” (Cellular and Molecular Life Sciences: CMLS, 2021).
Residue numbers refer to the chain shown, from its start.

Key:
[1] = test system: human moDCs naturally expressing CCR7; assay: 3D chemotaxis, time-lapse recording of human moDCs in Collagen I (chemotactic index); assay type: cell-based; conditions: human moDCs; for boosting of CCL21-induced DC chemotaxis: 10 nM CCL21, peptide 10 µM (0.1–10 µM in the dose series)
Method: Buffy coats were obtained from Rigshospitalet Copenhagen, as anonymous material, with written informed consent from the donors. The local ethics committee at Faculty of Health and Medical Sciences at the University of Copenhagen (Research Ethics Committee for Sund and Science, University of Copenhagen) found the project exempt from approval. DCs were prepared from human peripheral blood mononuclear cells (PBMC) isolated from buffy coats by centrifugation on a Lymphoprep gradient as previously described. Briefly, monocytes were isolated by plastic adherence of PBMC. Adhered monocytes were subsequently cultured and differentiated into immature DCs by incubation with IL-4 (250 U/ml) and GM-CSF (1000 U/ml) for 6 days, followed by activation into mature DCs by incubation with IL-6 (1000 U/ml), IL-1β (1000 U/ml), TNF-α (1000 U/ml), and PGE2 (1 µg/ml) for an additional 2 days in the same medium.
(§1) Human DCs were cultured in X-vivo 15 medium with 2% human AB serum and glutamine. CHO-K1 pgsB-618 ATCC® CRL2241™ [24] and CHO-K1 cells were grown in RPMI with 10% FBS and Penicillin/Streptomycin. HS^−/− (CHO EXTL 2/3 −/−), CS^−/− (CSGALNACT 1/2^−/− CHSY1^−/−), 5xKO (GalNAc-T1, 2, 4, 7 and 10 −/−) and WT CHO suspension cells were grown in suspension in 1:1 of EX-Cell CD CHO fusion media and Balanced CD CHO growth A medium supplemented with 2% glutamine and Penicillin/Streptomycin. Cells were kept in a humidified incubator at 37 °C, 5% CO2.
Chemotaxis assays were conducted as previously described. Briefly, mature human moDCs were left to acclimatize in medium for 30 min at room temperature (RT) upon defrosting, before assay start. DCs were seeded in Bovine Collagen I mixture prepared by mixing 10 µl Na2HCO3 (7.5%), 20 µl MEM (10×), 150 µl PureCol and 90 µl DCs dissolved in X-vivo 15 medium (2 × 10^6 cells/ml). After incubation for 45 min in a humidified incubator at 37 °C (5% CO2), the source and sink reservoirs were filled according to the manufacturer’s instructions and chemotaxis was tracked in a time-lapse microscope with a humidified temperature controlled stage incubator for 12 h at a 2 min interval. Cell migration (approximately 20–40 cells per viewing field) was tracked using a commercial tracking program (Autozell) and subsequently analyzed to get a population-based chemotactic index (CI) value (MATLAB). CI is a measure of net translocation distance to the source relative to total distance traveled and was thus calculated as the ratio of the distance traveled in the direction of the gradient over the total distance traveled and therefore is a conservative measure of the directedness of cell migration.

human CCR7 [2] = molecular target: T1, human CCR7 (Homo sapiens, UniProt P32248); assay: Gαi signaling, BRET-based cAMP (CAMYEL) assay at CCR7 in CHO cells; assay type: cell-based; conditions: for boosting of CCL21-induced Gαi signaling: CCL21 + 10 µM peptide, BRET cAMP, n = 3–8
T1 construct: CCR7 contains a 24-residue long signal peptide cleaved of from the mature protein; expressed in transfected cells; host or cells: CHO cells (CHO-K1, CHO suspension WT, GAG-deficient and 5xKO GalNAc-T knockout lines), transient transfection
T1 sequence (P32248 25-378): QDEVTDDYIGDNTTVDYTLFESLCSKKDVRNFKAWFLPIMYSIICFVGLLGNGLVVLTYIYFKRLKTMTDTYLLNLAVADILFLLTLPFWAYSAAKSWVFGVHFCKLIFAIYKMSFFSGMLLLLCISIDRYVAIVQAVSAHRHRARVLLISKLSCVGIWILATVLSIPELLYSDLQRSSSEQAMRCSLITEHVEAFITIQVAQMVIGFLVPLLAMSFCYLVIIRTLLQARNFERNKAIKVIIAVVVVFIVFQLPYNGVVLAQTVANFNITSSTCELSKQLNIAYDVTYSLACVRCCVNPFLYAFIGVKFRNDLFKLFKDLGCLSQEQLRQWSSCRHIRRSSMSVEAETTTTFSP
Method: as §1
(§2) For cAMP assays, adherent CHO cells were transfected using lipofectamine while suspension cells were transfected using the FectoPro method. Cells were seeded in a 6-well plate, either 500,000 (adherent cells) or 200,000 (suspension cells) cells/well. The next day the cells were transiently transfected with vectors encoding the human CCR7 and CAMYEL sensor (cAMP sensor using YFP-Epac-RLuc) in a 1:5 ratio using lipofectamine (6 µl/well) or FectoPro (4 µl/well). Lipofectamine transfections were terminated by changing to 2 ml fresh cultivation medium after 5 h, while Fectopro transfection was terminated after 3 h by adding 2.5 ml fresh cultivation medium and 2 µl FectoPro Boost reagent per well. The cells were incubated under standard cultivation conditions overnight. For β-arrestin recruitment assays, cells were transfected with CCR7 and vectors expressing a Renilla luciferase arrestin3 fusion protein and membrane-SH3-citrine protein. The cells were then resuspended in PBS w/glucose and seeded in 96-well white iso plates (~ 25,000 cells/well). Coelenterazine (bioluminescence substrate) was added to a final conc. of 5 µM. After 10 min, cells were stimulated with varying ligand concentrations for a total of 40 min. Forskolin was added to each well 5 min after ligand addition to reach a final conc. of 5 µM. The plates were kept in the dark at all times. Emission signal from Rluc and eYFP was measured using the Envision machine at 530 and 480 nm and the BRET signal determined as the ratio between (eYFP/Rluc).

human CCR7 [3] = molecular target: T1, human CCR7; assay: β-arrestin recruitment, BRET-based assay at CCR7; assay type: cell-based; conditions: no peptide, n = 4
Method: as §2

[4] = molecular target: T2, CCR7^−O (CCR7 T37/38/42A) (Homo sapiens, UniProt P32248, T37A/T38A/T42A); assay: Gαi signaling, BRET cAMP assay, CCR7 lacking N-terminal O-glycosylation sites; assay type: cell-based; conditions: no peptide, CCR7^−O vs WT CCR7
T2 construct: CCR7 contains a 24-residue long signal peptide cleaved of from the mature protein; expressed in transfected cells; host or cells: CHO cells, transient transfection
T2 sequence (P32248 25-378 T37A/T38A/T42A): T1 sequence (P32248 25-378) with T13A, T14A, T18A
Method: O-glycosylation deficient CCR7 was generated from WT through Quick change PCR using the following primers: […]
as §2

CCR7 = conditions: allosteric antagonist, cytosolic site; cited from earlier work
Text: In the absence of peptide, CCL19 and CCL21 contact CCR7 in different manners. The interaction of CCL21 depends on residues in the top of TM-3, -4 and -5 that are not important for CCL19 interaction with CCR7. The binding of these two chemokines induce different structural changes in CCR7 to disrupt old and create new hydrogen bonds. CCL21 binding to CCR7 is believed to involve movements within the majority of helical domains (TM2, -3, -4, -5, -6, and -7), whereas the changes induced by CCL19 are restricted to regions of TM3, -5, and -6 [37]. The conformational changes in CCR7 ind ...

Molecule | boosting of CCL21-induced DC chemotaxis [1] | boosting of CCL21-induced Gαi signaling (human CCR7 [2]; CHO cells) | also measured
TP91-111: C21TP reduced N-terminally by 20 aa (KKGKGSKGCKRTERSQTPKGP; UniProt O00585 114-134, looked up, fragment) | retaining boosting ability | retaining boosting ability | –
CCL19: endogenous chemokine, CCR7 ligand, from R&D Systems | – | – | chemotaxis towards chemokine alone ([1]; 10 nM chemokine, no peptide): strong migratory signal; chemokine signaling in O-glycosylation-deficient 5xKO cells (human CCR7 [2]; CHO 5xKO vs WT, CCL21 alone, CCL19 in absence or presence of C21TP): only slightly impaired; pEC50, Gαi signaling, chemokine alone (human CCR7 [2]; no peptide, CHO cells, forskolin 5 µM, n = 4): 7.94; pEC50, β-arrestin recruitment, chemokine alone (human CCR7 [3]): 7.11; chemokine activity on its own at CCR7^−O [4]: without affecting basal CCR7 activation via CCL19 and CCL21
TP81-102: C-terminally truncated version of TP81-111 (RKDRGASKTGKKGKGSKGCKRT; UniProt O00585 104-125, looked up, fragment) | conserved boosting effects | conserved boosting effects | –
TP81-97: C-terminally truncated version of TP81-111 (RKDRGASKTGKKGKGSK; UniProt O00585 104-120, looked up, fragment) | blunted chemotaxis boosting ability | reduced signaling via cAMP | –
Cc1ccc(C(NC2=NS(=O)(=O)N=C2Nc2ccc(C)c(C(=O)N(C)C)c2O)C(C)(C)C)o1 (centres unmarked) [Cmp2105] | – | – | competition with CCL19 binding to CCR7 (CCR7): outcompetes CCL19 binding to CCR7
TP81-111: naturally occurring peptide generated upon plasmin cleavage of CCL21 (RKDRGASKTGKKGKGSKGCKRTERSQTPKGP; UniProt O00585 104-134, looked up, fragment) | at least to the same extent as TP71-111 | boosted even more | –
